Patent publication US20090099029

T1: Bovine, dephosphorylated, Myelin Basic Protein (MBP), P02687
T1 chain: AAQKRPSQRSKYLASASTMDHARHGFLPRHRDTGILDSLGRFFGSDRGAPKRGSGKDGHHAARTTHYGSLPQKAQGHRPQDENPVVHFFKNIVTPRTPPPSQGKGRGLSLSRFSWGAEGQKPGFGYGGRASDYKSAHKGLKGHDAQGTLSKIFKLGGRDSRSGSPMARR

B1: EPHB4 (protein)
chain: LCLRKQSNGREAEYSDKHGQYLIGHGTKVYIDPFTYEDPNEAVREFAKEIDVSYVKIEEVIGAGEFGEVCRGRLKAPGKKESCVAIKTLKGGYTERQRREFLSEASIMGQFEHPNIIRLEGVVTNSMPVMILTEFMENGALDSFLRLNDGQFTVIQLVGMLRGIASGMRYLAEMSYVHRDLAARNILVNSNLVCKVSDFGLSRFLEENSSDPTYTSSLGGKIPIRWTAPEAIAFRKFTSASDAWSYGIVMWEVMSFGERPYWDMSNQDVINAIEQDYRLPPPPDCPTSLHQLMLDCWQKDRNARPRFPQVVSALDKMIRNPASLKIVARENGGASHPLLDQRQPHYSAFGSVGEWLRAIKMGRYEESFAAAGFGSFELVSQISAEDLLRIGVTLAGHQKKILASVQHMKSQAKPGTPGGTGGPAPQY
B2: RPS6KB1(p70S6K) (protein)
chain: MRRRRRRDGFYPAPDFRDREAEDMAGVFDIDLDQPEDAGSEDELEEGGQLNESMDHGGVGPYELGMEHCEKFEISETSVNRGPEKIRPECFELLRVLGKGGYGKVFQVRKVTGANTGKIFAMKVLKKAMIVRNAKDTAHTKAERNILEEVKHPFIVDLIYAFQTGGKLYLILEYLSGGELFMQLEREGIFMEDTACFYLAEISMALGHLHQKGIIYRDLKPENIMLNHQGHVKLTDFGLCKESIHDGTVTHTFCGTIEYMAPEILMRSGHNRAVDWWSLGALMYDMLTGAPPFTGENRKKTIDKILKCKLNLPPYLTQEARDLLKKLLKRNAASRLGAGPGDAGEVQAHPFFRHINWEELLARKVEPPFKPLLQSEEDVSQFDSKFTRQTPVDSPDDSTLSESANQVFLGFEYVAPSVLES
B3: RPS6KB2(p70S6K2) (protein)
chain: MAAVFDLDLETEEGSEGEGEPELSPADACPLAELRAAGLEPVGHYEEVELTETSVNVGPERIGPHCFELLRVLGKGGYGKVFQVRKVQGTNLGKIYAMKVLRKAKIVRNAKDTAHTRAERNILESVKHPFIVELAYAFQTGGKLYLILECLSGGELFTHLEREGIFLEDTACFYLAEITLALGHLHSQGIIYRDLKPENIMLSSQGHIKLTDFGLCKESIHEGAVTHTFCGTIEYMAPEILVRSGHNRAVDWWSLGALMYDMLTGSPPFTAENRKKTMDKIIRGKLALPPYLTPDARDLVKKFLKRNPSQRIGGGPGDAADVQRHPFFRHMNWDDLLAWRVDPPFRPCLQSEEDVSQFDTRFTRQTPVDSPDDTALSESANQAFLGFTYVAPSVLDSIKEGFSFQPKLRSPRRLNSSPRAPVSPLKFSPFEGFRPSPSLPEPTELPLPPLLPPPPPSTTAPLPIRPPSGTKKSKRGRGRPGR
B4: SGK2 (protein)
chain: LPDHCYRMNSSPAGTPSPQPSRANGNINLGPSANPNAQPTDFDFLKVIGKGNYGKVLLAKRKSDGAFYAVKVLQKKSILKKKEQSHIMAERSVLLKNVRHPFLVGLRYSFQTPEKLYFVLDYVNGGELFFHLQRERRFLEPRARFYAAEVASAIGYLHSLNIIYRDLKPENILLDCQGHVVLTDFGLCKEGVEPEDTTSTFCGTPEYLAPEVLRKEPYDRAVDWWCLGAVLYEMLHGLPPFYSQDVSQMYENILHQPLQIPGGRTVAACDLLQSLLHKDQRQRLGSKADFLEIKNHVFFSPINWDDLYHKRLTPPFNPNVTGPADLKHFDPEFTQEAVSKSIGCTPDTVASSSGASSAFLGFDYAPEDDDILDC
B5: SLK (protein)
chain: MSFFNFRKIFKLGSEKKKKQYEHVKRDLNPEDFWEIIGELGDGAFGKVYKAQNKETSVLAAAKVIDTKSEEELEDYMVEIDILASCDHPNIVKLLDAFYYENNLWILIEFCAGGAVDAVMLELERPLTESQIQVVCKQTLDALNYLHDNKIIHRDLKAGNILFTLDGDIKLADFGVSAKNTRTIQRRDSFIGTPYWMAPEVVMCETSKDRPYDYKADVWSLGITLIEMAEIEPPHHELNPMRVLLKIAKSEPPTLAQPSRWSSNFKDFLKKCLEKNVDARWTTSQLLQHPFVTVDSNKPIRELIAEAKAEVTEEVEDGKEEDEEEETENSLPIPASKRASSDLSIASSEEDKLSQNACILESVSEKTERSNSEDKLNSKILNEKPTTDEPEKAVEDINEHITDAQLEAMTELHDRTAVIKENEREKRPKLENLPDTEDQETVDINSVSEGKENNIMITLETNIEHNLKSEEEKDQEKQQMFENKLIKSEEIKDTILQTVDLVSQETGEKEANIQAVDSEVGLTKEDTQEKLGEDDKTQKDVISNTSDVIGTCEAADVAQKVDEDSAEDTQSNDGKEVVEVGQKLINKPMVGPEAGGTKEVPIKEIVEMNEIEEGKNKEQAINSSENIMDINEEPGTTEGEEITESSSTEEMEVRSVVADTDQKALGSEVQDASKVTTQIDKEKKEIPVSIKKEPEVTVVSQPTEPQPVLIPSININSDSGENKEEIGSLSKTETILPPESENPKENDNDSGTGSTADTSSIDLNLSISSFLSKTKDSGSISLQETRRQKKTLKKTRKFIVDGVEVSVTTSKIVTDSDSKTEELRFLRRQELRELRFLQKEEQRAQQQLNSKLQQQREQIFRRFEQEMMSKKRQYDQEIENLEKQQKQTIERLEQEHTNRLRDEAKRIKGEQEKELSKFQNMLKNRKKEVINEVEKAPKELRKELMKRRKEELAQSQHAQEQEFVQKQQQELDGSLKKIIQQQKAELANIERECLNNKQQLMRAREAAIWELEERHLQEKHQLLKQQLKDQYFMQRHQLLKRHEKETEQMQRYNQRLIEELKNRQTQERARLPKIQRSEAKTRMAMFKKSLRINSTATPDQDRDKIKQFAAQEEKRQKNERMAQHQKHENQMRDLQLQCEANVRELHQLQNEKCHLLVEHETQKLKELDEEHSQELKEWREKLRPRKKTLEEEFARKLQEQEVFFKMTGESECLNPSTQSRISKFYPIPSLHSTGS
B6: SRPK2 (protein)
chain: MSSRKVLAIQARKRRPKREKHPKKPEPQQKAPLVPPPPPPPPPPPPPLPDPTPPEPEEEILGSDDEEQEDPADYCKGGYHPVKIGDLFNGRYHVIRKLGWGHFSTVWLCWDMQGKRFVAMKVVKSAQHYTETALDEIKLLKCVRESDPSDPNKDMVVQLIDDFKISGMNGIHVCMVFEVLGHHLLKWIIKSNYQGLPVRCVKSIIRQVLQGLDYLHSKCKIIHTDIKPENILMCVDDAYVRRMAAEATEWQKAGAPPPSGSAVSTAPQQKPIGKISKNKKKKLKKKQKRQAELLEKRLQEIEELEREAERKIIEENITSAAPSNDQDGEYCPEVKLKTTGLEEAAEAETAKDNGEAEDQEEKEDAEKENIEKDEDDVDQELANIDPTWIESPKTNGHIENGPFSLEQQLDDEDDDEEDCPNPEEYNLDEPNAESDYTYSSSYEQFNGELPNGRHKIPESQFPEFSTSLFSGSLEPVACGSVLSEGSPLTEQEESSPSHDRSRTVSASSTGDLPKAKTRAADLLVNPLDPRNADKIRVKIADLGNACWVHKHFTEDIQTRQYRSIEVLIGAGYSTPADIWSTACMAFELATGDYLFEPHSGEDYSRDEDHIAHIIELLGSIPRHFALSGKYSREFFNRRGELRHITKLKPWSLFDVLVEKYGWPHEDAAQFTDFLIPMLEMVPEKRASAGECLRHPWLNS
B7: STK17A(DRAK1) (protein)
chain: MIPLEKPGSGGSSPGATSGSGRAGRGLSGPCRPPPPPQARGLLTEIRAVVRTEPFQDGYSLCPGRELGRGKFAVVRKCIKKDSGKEFAAKFMRKRRKGQDCRMEIIHEIAVLELAQDNPWVINLHEVYETASEMILVLEYAAGGEIFDQCVADREEAFKEKDVQRLMRQILEGVHFLHTRDVVHLDLKPQNILLTSESPLGDIKIVDFGLSRILKNSEELREIMGTPEYVAPEILSYDPISMATDMWSIGVLTYVMLTGISPFLGNDKQETFLNISQMNLSYSEEEFDVLSESAVDFIRTLLVKKPEDRATAEECLKHPWLTQSSIQEPSFRMEKALEEANALQEGHSVPEINSDTDKSETKESIVTEELIVVTSYTLGQCRQSEKEKMEQKAISKRFKFEEPLLQEIPGEFIY

Target: T1, Bovine, dephosphorylated, Myelin Basic …

Protein | MBP Kinase Activity
B1 | Strong
B2 | Negative
B3 | Negative
B4 | Weak
B5 | Weak
B6 | Strong
B7 | Negative
